# What was measured:
# [1] = target: VpreB1 protein (Homo sapiens (Human)) (UniProt P12018); assay: flow cytometry, 1 ug FITC-conjugated antibody on 1x10^6 HT cells (no detectable VpreB1 mRNA in Table 1; in effect a VpreB1-negative line)
# [2] = target: VpreB1 protein (Homo sapiens (Human)) (UniProt P12018); assay: flow cytometry, 1 ug FITC-conjugated antibody on 1x10^6 CA46 cells (endogenous VpreB1)
# [3] = target: VpreB1 protein (Homo sapiens (Human)) (UniProt P12018); assay: flow cytometry, 1 ug FITC-conjugated antibody on 1x10^6 GA-10 cells (endogenous VpreB1)
# UniProt P12018, sequence (P12018 20-145 limits assumed): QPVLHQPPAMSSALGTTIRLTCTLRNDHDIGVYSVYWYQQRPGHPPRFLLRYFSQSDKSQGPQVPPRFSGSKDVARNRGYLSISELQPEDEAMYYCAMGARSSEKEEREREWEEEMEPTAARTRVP
substance,measurement,setting,value
"FITC-conjugated anti-VpreB1 monoclonal antibody (Serotec, Raleigh, N.C.)",% of cells surface labeled (gate M1),[1],3%
same,% of cells surface labeled (gate M1),[2],69%
same,% of cells surface labeled (gate M1),[3],91%

# From patent publication US20030215453A1
